According to PMC2576301, “The crystal structure of the catalytic domain of a eukaryotic guanylate cyclase” (BMC Structural Biology, 2008):

Key:
[1] = target: catalytic domain of the soluble guanylate cyclase CYG12 from Chlamydomonas reinhardtii (Chlamydomonas reinhardtii); assay: crystal structure; sitting-drop vapor diffusion, 20°C; 0.1 M sodium cacodylate pH 5.0-6.4, 42-62% saturated (NH4)2HPO4; molecular replacement; 2.55 Å; one dimer per asymmetric unit
[2] = substrate: Nc1nc2c(ncn2[C@@H]2O[C@H](COP(=O)(O)OP(=O)(O)OP(=O)(O)O)[C@@H](O)[C@H]2O)c(=O)[nH]1; assay: cGMP formation, enzyme immunoassay; Hill fit; format: biochemical, Chlamydomonas reinhardtii; settings: 4 mM MnCl2, pH 7.5, 24 °C, 5 mM dithiothreitol, 2 min, positive cooperativity, Hill coefficient 1.49 ± 0.16

stoichiometry N [1] | Molecule | K0.5 [2] [µM]
2 | catalytic domain of the soluble guanylate cyclase CYG12 from Chlamydomonas reinhardtii (domain or fragment) | 
 | guanylate cyclase catalytic domain of CYG12 (Chlamydomonas reinhardtii) (protein, catalytic domain, residues 468-655 of 991; His-SMT3 (SUMO) fusion cleaved off; expressed in E. coli Tuner(DE3); homodimer) APAQEHPEATVLFSDIVGFTEIASRSSPLEVCSLLDELYQRFDAAIEEYPQLYKVETIGDAYMVVCNVTVPCDDHADVLLEFALRMHEEASRVASSLGEPVRIRVGMHSGPVVAGVVGRKMPRFCLFGDTVNTASRMESHGEAGQIHISEACYCCLRSKERFEIRERGNITVKGKGTMRTYLLSPLER | 269 ± 26
